Experiment [1] deals with recombinant PfCSP (rPfCSP, residues 21-375) (Plasmodium falciparum) (UniProt P19597). The experiment can be described thus: ELISA on coated rPfCSP, OD405nm. Background: ELISA stands for enzyme-linked immunosorbent assay.
The target is the same in experiment [2]. In words: biolayer interferometry, biotinylated CSP on the sensor, whole IgG in solution; apparent KD. A general note: In BLI a coated tip is dipped into the sample, and binding shifts an interference pattern.
The target is the same in experiment [3].

Chain of recombinant PfCSP (rPfCSP, residues 21-375) (Plasmodium falciparum) (P19597 21-375): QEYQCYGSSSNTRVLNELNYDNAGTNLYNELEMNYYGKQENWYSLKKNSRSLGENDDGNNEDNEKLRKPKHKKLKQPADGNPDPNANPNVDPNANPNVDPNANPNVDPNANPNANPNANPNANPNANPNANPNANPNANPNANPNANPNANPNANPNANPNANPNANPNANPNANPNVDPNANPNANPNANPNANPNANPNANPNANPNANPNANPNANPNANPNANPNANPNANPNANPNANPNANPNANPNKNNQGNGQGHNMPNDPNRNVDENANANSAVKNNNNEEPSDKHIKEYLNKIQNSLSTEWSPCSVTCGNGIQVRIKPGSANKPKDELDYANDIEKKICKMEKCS

By EC50 (read off the curve) is commonly meant the concentration at which the effect is half-maximal. mAb2A10 (antibody): the concentration for a half-maximal effect (EC50 (read off the curve)) in experiment [1] came to 0.04 µg/mL. Besides, the Kd in experiment [2] amounted to 0.15 nM.

Take mAb CIS43 (antibody): the EC50 (read off the curve) in experiment [1] is 0.003 µg/mL. For the same substance, in experiment [3], the -TΔS1 was determined as 8.4 kcal/mol, the -TΔS2 was found to be 0.1 kcal/mol, the N1 (stoichiometry) turned out to be 1.2 and the N2 (stoichiometry) came to 5.1. In experiment [3], the ΔH1 is -19.5 kcal/mol and the ΔH2 is -10.2 kcal/mol. In experiment [2], the Kd came to 0.91 nM.

Source of the values: patent US20190375831A1.
